The source of these data is article PMC9177958, “Structures of nonsense-mediated mRNA decay factors UPF3B and UPF3A in complex with UPF2 reveal molecular basis for competitive binding and for neurodevelopmental disorder-causing mutation” (Nucleic Acids Research, 2022).

Sequences and labels used below:
T1: UPF3B-WT (human, UniProt Q9BZI7-2 1-470)
T1 sequence: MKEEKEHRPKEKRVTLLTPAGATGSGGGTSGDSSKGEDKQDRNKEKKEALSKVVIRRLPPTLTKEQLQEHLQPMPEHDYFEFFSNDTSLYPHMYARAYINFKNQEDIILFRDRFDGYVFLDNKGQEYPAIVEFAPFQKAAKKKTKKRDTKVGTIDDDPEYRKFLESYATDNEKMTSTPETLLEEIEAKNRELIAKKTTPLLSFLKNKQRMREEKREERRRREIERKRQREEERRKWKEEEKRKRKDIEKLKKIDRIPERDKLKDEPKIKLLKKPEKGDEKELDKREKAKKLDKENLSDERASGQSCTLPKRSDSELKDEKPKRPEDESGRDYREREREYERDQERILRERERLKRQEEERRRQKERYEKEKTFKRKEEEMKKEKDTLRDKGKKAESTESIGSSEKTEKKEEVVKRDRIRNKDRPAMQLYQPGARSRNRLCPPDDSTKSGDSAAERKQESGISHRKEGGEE

T2: UPF3A-WT (human, UniProt Q9H1J1 1-476)
T2 construct: UPF3A, human, full length; The cloning of UPF3A-WT is not described in the methods; also called full-length UPF3A-WT; source: insect cells (MultiBac), purified (Ni-NTA, TEV, reverse IMAC, ion exchange)
T2 sequence (looked up): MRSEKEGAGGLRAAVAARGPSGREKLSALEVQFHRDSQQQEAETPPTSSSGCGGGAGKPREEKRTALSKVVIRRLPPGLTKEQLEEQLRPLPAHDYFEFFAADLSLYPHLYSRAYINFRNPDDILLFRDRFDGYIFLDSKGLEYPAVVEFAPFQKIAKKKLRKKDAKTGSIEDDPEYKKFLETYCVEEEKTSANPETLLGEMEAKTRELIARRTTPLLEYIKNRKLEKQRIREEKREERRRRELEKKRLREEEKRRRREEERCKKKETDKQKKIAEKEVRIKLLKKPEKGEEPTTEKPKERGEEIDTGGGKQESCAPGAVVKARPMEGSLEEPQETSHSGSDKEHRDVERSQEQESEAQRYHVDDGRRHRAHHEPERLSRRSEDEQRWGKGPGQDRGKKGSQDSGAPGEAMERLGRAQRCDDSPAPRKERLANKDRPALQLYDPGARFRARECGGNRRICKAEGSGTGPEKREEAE

T3: UPF2L (120–1227) (UniProt Q9HAU5 120-1227)
T3 construct: UPF2, larger construct with wildtype activity, amino acids 120-1227; source: E. coli BL21 Rosetta2(DE3), purified (Ni-NTA, TEV, reverse IMAC, ion exchange)
T3 sequence (looked up): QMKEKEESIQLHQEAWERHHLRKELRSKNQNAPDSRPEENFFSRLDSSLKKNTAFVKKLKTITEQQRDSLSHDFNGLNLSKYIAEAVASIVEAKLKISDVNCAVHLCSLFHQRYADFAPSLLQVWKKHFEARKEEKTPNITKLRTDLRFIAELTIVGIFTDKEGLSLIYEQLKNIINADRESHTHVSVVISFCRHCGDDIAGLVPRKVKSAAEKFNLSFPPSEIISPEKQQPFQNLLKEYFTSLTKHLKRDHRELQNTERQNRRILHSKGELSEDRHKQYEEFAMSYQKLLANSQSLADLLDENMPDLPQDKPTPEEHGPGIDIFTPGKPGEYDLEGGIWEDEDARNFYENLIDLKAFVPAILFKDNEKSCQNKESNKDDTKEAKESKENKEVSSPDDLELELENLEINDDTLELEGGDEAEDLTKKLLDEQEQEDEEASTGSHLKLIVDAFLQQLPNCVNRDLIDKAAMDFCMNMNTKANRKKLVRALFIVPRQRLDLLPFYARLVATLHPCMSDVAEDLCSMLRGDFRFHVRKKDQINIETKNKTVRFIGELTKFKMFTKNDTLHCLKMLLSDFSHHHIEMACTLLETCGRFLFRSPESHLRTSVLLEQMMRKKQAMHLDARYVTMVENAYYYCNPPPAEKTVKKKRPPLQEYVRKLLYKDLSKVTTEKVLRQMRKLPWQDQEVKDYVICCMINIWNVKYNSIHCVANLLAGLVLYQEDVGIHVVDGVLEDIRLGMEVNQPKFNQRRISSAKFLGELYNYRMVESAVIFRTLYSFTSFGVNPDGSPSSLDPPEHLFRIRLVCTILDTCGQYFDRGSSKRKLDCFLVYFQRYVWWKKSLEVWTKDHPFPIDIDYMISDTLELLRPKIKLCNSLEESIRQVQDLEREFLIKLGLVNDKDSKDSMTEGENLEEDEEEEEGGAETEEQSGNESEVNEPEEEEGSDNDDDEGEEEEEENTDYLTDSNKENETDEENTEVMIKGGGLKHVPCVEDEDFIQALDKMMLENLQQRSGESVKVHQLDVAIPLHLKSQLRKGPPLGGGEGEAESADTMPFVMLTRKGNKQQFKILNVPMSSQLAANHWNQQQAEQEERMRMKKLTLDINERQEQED

B1: biotinylated Avi-UPF2-MIF4GIII (domain or fragment, UniProt Q9HAU5 761-1054, looked up)
chain: EKTVKKKRPPLQEYVRKLLYKDLSKVTTEKVLRQMRKLPWQDQEVKDYVICCMINIWNVKYNSIHCVANLLAGLVLYQEDVGIHVVDGVLEDIRLGMEVNQPKFNQRRISSAKFLGELYNYRMVESAVIFRTLYSFTSFGVNPDGSPSSLDPPEHLFRIRLVCTILDTCGQYFDRGSSKRKLDCFLVYFQRYVWWKKSLEVWTKDHPFPIDIDYMISDTLELLRPKIKLCNSLEESIRQVQDLEREFLIKLGLVNDKDSKDSMTEGENLEEDEEEEEGGAETEEQSGNESEVNE
modifications: biotin on the Avi tag (BirA)
notes: UPF2, third middle-domain of eukaryotic initiation factor 4G (MIF4GIII), residues 761-1054; Avi tag added by site-directed mutagenesis to UPF2-MIF4GIII; also called immobilized UPF2-MIF4GIII; source: E. coli BL21 Rosetta2(DE3), purified (Ni-NTA, TEV, reverse IMAC, ion exchange); biotinylated with BirA, SEC
B2: UPF3A-58–206-Iso1 (domain or fragment, human, UniProt Q9H1J1 58-206, looked up)
chain: KPREEKRTALSKVVIRRLPPGLTKEQLEEQLRPLPAHDYFEFFAADLSLYPHLYSRAYINFRNPDDILLFRDRFDGYIFLDSKGLEYPAVVEFAPFQKIAKKKLRKKDAKTGSIEDDPEYKKFLETYCVEEEKTSANPETLLGEMEAKT
notes: Codon-optimized for E. coli, gene-synthesized; also called UPF3A-58–208 (as printed once); source: E. coli BL21 Rosetta2(DE3), purified (Ni-NTA, TEV, reverse IMAC, ion exchange)
B3: UPF3A-58–206-NOPS* C185A-V186T-E187D (domain or fragment, human, UniProt Q9H1J1 58-206, looked up)
chain: B2 chain with C128A, V129T, E130D
notes: also called NOPS* construct; source: E. coli BL21 Rosetta2(DE3), purified (Ni-NTA, TEV, reverse IMAC, ion exchange)
B4: UPF3A-58–206-RRM* A101S-A102N-L104T (domain or fragment, human, UniProt Q9H1J1 58-206, looked up)
chain: B2 chain with A44S, A45N, L47T
notes: also called RRM* construct; source: E. coli BL21 Rosetta2(DE3), purified (Ni-NTA, TEV, reverse IMAC, ion exchange)
B5: UPF3B-41–143 (domain or fragment, human, UniProt Q9BZI7 41-143, looked up)
chain: DRNKEKKEALSKVVIRRLPPTLTKEQLQEHLQPMPEHDYFEFFSNDTSLYPHMYARAYINFKNQEDIILFRDRFDGYVFLDNKGQEYPAIVEFAPFQKAAKKK
notes: UPF3B, human, RRM-L domain, residues 41-143; also called RRM-L alone; RRM-L only; source: E. coli BL21 Rosetta2(DE3), purified (Ni-NTA, TEV, reverse IMAC, ion exchange)
B6: 24mer dsDNA (dsDNA)
DNA 1: CCCTGAGCTGACGCAGCACCTGGG
DNA 2: CCCAGGTGCTGCGTCAGCTCAGGG
B7: UPF3B-WT (residues 1–470) (natural protein, human, UniProt Q9BZI7-2 1-470, looked up)
chain: T1 sequence
notes: UPF3B, human, isoform 2 (the predominant form found in cells), residues 1-470, printed length 470; also called full-length UPF3B; source: insect cells (MultiBac), purified (Ni-NTA, TEV, reverse IMAC, ion exchange)
B8: UPF3B-41–189 (domain or fragment, human, UniProt Q9BZI7 41-189, looked up)
chain: DRNKEKKEALSKVVIRRLPPTLTKEQLQEHLQPMPEHDYFEFFSNDTSLYPHMYARAYINFKNQEDIILFRDRFDGYVFLDNKGQEYPAIVEFAPFQKAAKKKTKKRDTKVGTIDDDPEYRKFLESYATDNEKMTSTPETLLEEIEAKN
notes: UPF3B, human, RRM-L and N-terminal part of the middle-domain (NOPS-L), residues 41-189; also called UPF3B-1–189 (as printed once); source: E. coli BL21 Rosetta2(DE3), purified (Ni-NTA, TEV, reverse IMAC, ion exchange)
B9: UPF3B-41–189 Y160D (domain or fragment, human, UniProt Q9BZI7 41-189, looked up)
chain: B8 chain with Y120D
notes: UPF3B, human, residues 41-189 with the disease-causing (XLID) mutation Y160D; Y160D is a patient mutation and is also used as a phosphomimetic; also called UPF3B-Y160D; phosphomimetic/disease mutation; source: E. coli BL21 Rosetta2(DE3), purified (Ni-NTA, TEV, reverse IMAC, ion exchange)
B10: UPF3B-41–189 Y167D (domain or fragment, human, UniProt Q9BZI7 41-189, looked up)
chain: B8 chain with Y127D
notes: UPF3B, human, residues 41-189 with Y167D; also called Y167D (phosphomimetic); source: E. coli BL21 Rosetta2(DE3), purified (Ni-NTA, TEV, reverse IMAC, ion exchange)
B11: UPF3B-41–189 Y167A (domain or fragment, human, UniProt Q9BZI7 41-189, looked up)
chain: B8 chain with Y127A
notes: UPF3B, human, residues 41-189 with Y167A; source: E. coli BL21 Rosetta2(DE3), purified (Ni-NTA, TEV, reverse IMAC, ion exchange)
B12: UPF3B-41–189 Y160A (domain or fragment, human, UniProt Q9BZI7 41-189, looked up)
chain: B8 chain with Y120A
notes: UPF3B, human, residues 41-189 with Y160A; source: E. coli BL21 Rosetta2(DE3), purified (Ni-NTA, TEV, reverse IMAC, ion exchange)
B13: UPF3B-41–189 Y160D + Y167D (domain or fragment, human, UniProt Q9BZI7 41-189, looked up)
chain: B8 chain with Y120D, Y127D
notes: UPF3B, human, residues 41-189 with Y160D and Y167D; source: E. coli BL21 Rosetta2(DE3), purified (Ni-NTA, TEV, reverse IMAC, ion exchange)
B14: UPF3B-41–189 Y160A + Y167A (domain or fragment, human, UniProt Q9BZI7 41-189, looked up)
chain: B8 chain with Y120A, Y127A
notes: UPF3B, human, residues 41-189 with Y160A and Y167A; source: E. coli BL21 Rosetta2(DE3), purified (Ni-NTA, TEV, reverse IMAC, ion exchange)
B15: UPF3B-41–189 F163A (domain or fragment, human, UniProt Q9BZI7 41-189, looked up)
chain: B8 chain with F123A
notes: UPF3B, human, residues 41-189 with F163A; it is named in the results; source: E. coli BL21 Rosetta2(DE3), purified (Ni-NTA, TEV, reverse IMAC, ion exchange)

One data set addresses T1, UPF3B-WT. As to the kind of experiment: fluorescence anisotropy; FA: 5 nM probe, 150 mM NaCl, 25 mM HEPES pH 7.45, 1 mM TCEP, 20 C; EMSA: 250 nM probe, 25 mM HEPES pH 7.45, 2 mM MgCl2, 150 mM NaCl, 0.5 mM TCEP, on ice. Conditions: protein: recombinant, tags: 6xHis removed by TEV.
Another data set has as its target T2, UPF3A-WT. Put plainly: SPR; 350 RU biotinylated Avi-UPF2-MIF4GIII immobilised on an SA chip (Biacore T200); UPF3B and UPF3A constructs injected; 15°C; 300 mM NaCl, 25 mM HEPES pH 7.4, 0.25 mM TCEP, 0.05% Tween-20; global fit, 1:1 binding model. Conditions: both partners purified.
For data set [1], the target named is B7. Described as above. The settings on record: both partners purified.
Data set [2] deals with B1. Described as above. Conditions: both partners purified.
The target in another data set is T3, UPF2L (120–1227). As to the kind of experiment: native gel or EMSA; 250 nM HEX-labelled ssRNA with 2 μM UPF3B-WT or UPF2L and increasing ratios of the other; on ice 1 h; 25 mM HEPES pH 7.45, 2 mM MgCl2, 150 mM NaCl, 0.5 mM TCEP; 4–20% Tris-Glycine native gel, Coomassie. The settings on record: both partners purified. A general note: Mobility shift assays separate free from complexed probe on a gel.

Substitutions are numbered along the chain they refer to. Numbers in names are those of the source.

What is called Kd is the equilibrium constant for the complex coming apart.

For CCCTGAGCTGACGCAGCACCTGGG (ssDNA) [24mer ssDNA], the Kd with UPF3B-WT (label: 5' HEX, single strand) came to 190 nM. Regarding B1, the Kd in the data set with UPF3A-WT was 0.048 nM; in data set [1], 0.47 nM.

The molecule B2 gave a Kd in data set [2] of 0.22 nM.

On to B3, for which binding in data set [2] was put at a Kd of 2.6 nM. B4 registered a Kd in data set [2] of 0.77 nM.

Turning to B5, the Kd in data set [2] came to 720 nM. On to B6, for which the Kd with UPF3B-WT (label: 5' HEX on strand 1, blunt) came out at 61 nM. Take B7: in the data set with UPF2L (120–1227), the binding result was “binds”. Molecule B8 came in with a Kd in data set [2] of 3.6 nM.

Molecule B9 returned a Kd in data set [2] of 140 nM. Take B10: in data set [2], the Kd came out at 7.4 nM. Take B11: binding in data set [2] was characterised by a dissociation constant (Kd) of 3.3 nM. For B12, the Kd in data set [2] was 88 nM. In the case of B13, in data set [2], the Kd is roughly 130 nM.

The molecule B14 had a Kd in data set [2] of roughly 130 nM. For B15, the affinity in data set [2], expressed as Kd, was 90 nM.
